Data: the supplement of paper PMC10567573

B1: BCL2L13 (parent)
chain: MASSSTVPLGFHYETKYVVLSYLG

Variants of: B1
Assay: protein stability index of a GFP-peptide fusion (GPS, HEK-293T) (PSI 1-6); higher = more stable
Conditions: c terminus: a fixed tail appended
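Also: lentivirally expressed fusions sorted by FACS into six bins by GFP to DsRed ratio, PSI derived from sequencing read proportions per bin multiplied by bin number.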

Row | Variant | protein stability index
1 | V18S | 1.79
2 | V18P | 1.91
3 | V18I | 2.81
4 | V18A | 2.24
5 | V18R | 1.88
6 | V18F | 3.21
7 | V18T | 2.88
8 | V18L | 1.88
9 | V18K | 2.31
10 | V18H | 1.88
11 | V18Y | 2.6
12 | V18G | 1.53
13 | V18W | 1.84
14 | V18M | 2.55
15 | V18N | 1.56
16 | T15D | 2.03
17 | T15M | 2.79
18 | T15F | 1.5
19 | T15Y | 2.75
20 | T15P | 2.06
21 | T15W | 2.05
22 | T15E | 2.61
23 | T15C | 1.71
24 | T15R | 1.36

Row | Variant | protein stability index
25 | T15H | 1.91
26 | T15A | 1.86
27 | T15L | 2.1
28 | L20S | 1.69
29 | L20P | 1.7
30 | L20Y | 2.88
31 | L20D | 2.18
32 | L20M | 2.37
33 | L20K | 2.52
34 | L20V | 2.82
35 | L20E | 1.78
36 | L20Q | 2.19
37 | L20T | 2.17
38 | L20A | 2.12
39 | L20W | 2.22
40 | L20I | 1.71
41 | L20H | 2.01
42 | L20G | 1.74
43 | L20C | 2.58
44 | L20F | 3.51
45 | V7H | 2.67
46 | V7R | 2.33
47 | V7K | 2.84
48 | V7I | 2.72

Row | Variant | protein stability index
49 | V7E | 3.31
50 | V7W | 2.36
51 | V7C | 3.72
52 | V7A | 2.78
53 | V7D | 3.29
54 | V7Y | 3.3
55 | V7T | 2.36
56 | V7N | 3.19
57 | V7P | 2.14
58 | S4K | 2.21
59 | S4Y | 2.38
60 | S4W | 2.93
61 | S4D | 2.74
62 | S4P | 3.27
63 | S4Q | 3.25
64 | S4M | 1.76
65 | S4V | 2.91
66 | S4E | 4.38
67 | S4N | 1.7
68 | S4A | 2.6
69 | S4G | 2.49
70 | S4I | 2.21
71 | E14H | 1.75
72 | E14Q | 3.35

Row | Variant | protein stability index
73 | E14W | 3.62
74 | E14Y | 2.64
75 | E14N | 2.48
76 | E14V | 2.46
77 | E14S | 2.62
78 | E14R | 2.14
79 | E14A | 2.21
80 | E14F | 1.81
81 | E14G | 2.09
82 | E14T | 2.3
83 | T6G | 1.94
84 | T6Y | 2.66
85 | T6A | 2.45
86 | T6M | 2.4
87 | T6I | 2.35
88 | T6E | 3.45
89 | T6L | 2.14
90 | T6Q | 2.26
91 | T6D | 2.29
92 | T6H | 3.22
93 | T6R | 2.82
94 | T6P | 2.59
95 | H12F | 3.51
96 | H12W | 2.66

Row | Variant | protein stability index
97 | H12Y | 3.26
98 | H12S | 3.12
99 | H12K | 2.23
100 | H12N | 2.12
101 | H12M | 2.39
102 | H12I | 2.75
103 | H12A | 2.3
104 | H12P | 2.5
105 | H12Q | 2.67
106 | H12E | 2.55
107 | H12D | 2.39
108 | M1F | 2.74
109 | M1S | 2.15
110 | M1Y | 2.09
111 | M1T | 2.27
112 | M1K | 2.03
113 | M1I | 2.51
114 | M1P | 2.72
115 | M1R | 2.48
116 | M1G | 3.23
117 | M1D | 3.17
118 | M1H | 2.59
119 | M1V | 2.12
120 | L9V | 2.06

Row | Variant | protein stability index
121 | L9Q | 2.62
122 | L9F | 1.33
123 | L9H | 2.31
124 | L9T | 2.45
125 | L9K | 2.57
126 | L9E | 2.33
127 | L9G | 2.75
128 | L9M | 2.35
129 | L9I | 3.14
130 | L9A | 2
131 | L9W | 3.66
132 | L9D | 2.32
133 | L9N | 3.25
134 | P8L | 1.66
135 | P8I | 2.73
136 | P8W | 3.73
137 | P8S | 2.54
138 | P8Q | 2.54
139 | P8V | 2.15
140 | P8M | 3.28
141 | P8T | 2.53
142 | P8K | 3.91
143 | P8H | 2.22
144 | P8D | 2.98

Row | Variant | protein stability index
145 | P8G | 4.24
146 | P8N | 3.63
147 | P8A | 2.97
148 | P8Y | 3.53
149 | S5I | 2.74
150 | S5D | 2.72
151 | S5M | 2.51
152 | S5V | 2.17
153 | S5G | 2.2
154 | S5T | 2.71
155 | S5N | 2.72
156 | S5H | 2.09
157 | S5P | 2.24
158 | S5E | 1.53
159 | S5L | 2.16
160 | S5K | 1.91
161 | S5Q | 2.96
162 | S5Y | 3.24
163 | S5W | 2.02
164 | S5C | 2.11
165 | G24V | 3.35
166 | G24H | 2.42
167 | G24F | 3.97
168 | G24C | 2.21

Row | Variant | protein stability index
169 | G24W | 3.89
170 | G24N | 2.1
171 | G24Q | 2.62
172 | G24R | 2.06
173 | G24I | 1.75
174 | G24K | 1.45
175 | G24D | 2.38
176 | G24Y | 1.89
177 | G24E | 2.05
178 | G24P | 2.71
179 | G24L | 2.98
180 | G24M | 1.84
181 | G24A | 2.8
182 | A2D | 2.56
183 | A2E | 2.06
184 | A2S | 3.1
185 | A2F | 3.22
186 | A2L | 2.56
187 | A2R | 2.37
188 | A2P | 2.49
189 | A2K | 2.38
190 | A2G | 2.72
191 | A2C | 3.03
192 | A2Q | 2.37

Row | Variant | protein stability index
193 | A2I | 1.92
194 | A2M | 2.68
195 | S21K | 1.45
196 | S21H | 2.27
197 | S21D | 2.24
198 | S21R | 3.78
199 | S21N | 2.4
200 | S21L | 3.41
201 | S21G | 1.62
202 | S21F | 3.84
203 | S21P | 2.35
204 | S21Q | 3.52
205 | S21A | 3.51
206 | S21T | 2.72
207 | S21E | 1.24
208 | F11S | 1.9
209 | F11W | 1.89
210 | F11H | 1.67
211 | F11G | 1.35
212 | F11N | 2.69
213 | F11P | 2.33
214 | F11C | 2.63
215 | F11T | 1.81
216 | F11E | 1.94

Row | Variant | protein stability index
217 | F11R | 1.71
218 | F11M | 2.82
219 | F11I | 2.02
220 | F11L | 2.36
221 | F11A | 2.41
222 | F11Q | 2.85
223 | F11Y | 2.49
224 | S3Q | 2.21
225 | S3N | 2.59
226 | S3E | 3.48
227 | S3Y | 2.64
228 | S3K | 2.62
229 | S3R | 2.97
230 | S3C | 2.59
231 | S3H | 2.77
232 | S3F | 1.99
233 | S3G | 3.46
234 | S3V | 3
235 | S3M | 2.72
236 | S3T | 3.21
237 | Y13C | 2.25
238 | Y13N | 1.7
239 | Y13G | 2.14
240 | Y13L | 2.59

Row | Variant | protein stability index
241 | Y13E | 1.59
242 | Y13P | 1.84
243 | Y13H | 2.27
244 | Y13Q | 1.39
245 | Y13K | 1.44
246 | Y13T | 2.28
247 | Y13D | 2.35
248 | Y13R | 1.85
249 | Y13V | 2.51
250 | Y13F | 3.43
251 | Y13W | 2.16
252 | Y13S | 2.07
253 | L23F | 2.12
254 | L23P | 1.71
255 | L23T | 1.44
256 | L23V | 1.93
257 | L23G | 1.71
258 | L23I | 2.11
259 | L23E | 1.65
260 | L23S | 2.34
261 | L23W | 2.76
262 | L23R | 2.21
263 | L23C | 2.09
264 | L23H | 2.59

Row | Variant | protein stability index
265 | L23M | 3.69
266 | L23Y | 2.46
267 | L23K | 2.3
268 | Y22P | 1.47
269 | Y22H | 3
270 | Y22I | 2.02
271 | Y22S | 3.81
272 | Y22E | 1.85
273 | Y22F | 2.49
274 | Y22W | 2.89
275 | Y22C | 2.8
276 | Y22D | 2.4
277 | Y22N | 1.63
278 | Y22T | 2.81
279 | Y22A | 1.89
280 | Y22G | 2.51
281 | Y22K | 2.37
282 | Y17N | 1.62
283 | Y17K | 2.1
284 | Y17A | 2.67
285 | Y17D | 1.73
286 | Y17F | 3.51
287 | Y17M | 3.56
288 | Y17G | 2

Row | Variant | protein stability index
289 | Y17T | 1.62
290 | Y17H | 1.95
291 | Y17E | 1.86
292 | Y17L | 2.22
293 | Y17R | 1.66
294 | G10S | 2.77
295 | G10M | 2.73
296 | G10A | 2.01
297 | G10Y | 4.41
298 | G10W | 2.57
299 | G10E | 2.13
300 | G10L | 2.52
301 | G10C | 2.1
302 | G10R | 3.6
303 | G10K | 3.29
304 | G10F | 2.22
305 | G10V | 2.14
306 | G10I | 1.73
307 | G10N | 2.93
308 | G10T | 3.54
309 | K16Q | 2.6
310 | K16F | 2.32
311 | K16P | 1.83
312 | K16N | 3.56

Row | Variant | protein stability index
313 | K16C | 4.41
314 | K16V | 2.53
315 | K16R | 2.55
316 | K16M | 2.61
317 | K16L | 2.04
318 | K16E | 4.22
319 | K16Y | 3.26
320 | K16G | 2.38
321 | K16A | 2.64
322 | K16H | 1.46
323 | V19K | 1.34
324 | V19Y | 2.63
325 | V19R | 1.41
326 | V19H | 1.73
327 | V19F | 1.5
328 | V19W | 1.91
329 | V19P | 2.2
330 | V19T | 3.32
331 | V19E | 1.7
332 | V19M | 3.27
333 | V19L | 2.29
334 | V19C | 2.34
